Positions of bridges follow the written chain, without caps; N, C: chain ends. Non-standard residues stand in square brackets, D forms with d. No end group written: not given here. pGlu = O=C1CC[C@@H](C(=O)O)N1; Nle = CCCC[C@H](N)C(=O)O; I‑37 = not defined here
Key:
RXFP1 [1] = target: RXFP1
RXFP1 [2] = target: RXFP1; remark: listed apart in the source
[3] = target: hFGF23-variant of Example 28B
APJ = APJ (human, UniProt P35414); experiment: cell-based or functional assay

MC3R, sequence (P41968 whole entry): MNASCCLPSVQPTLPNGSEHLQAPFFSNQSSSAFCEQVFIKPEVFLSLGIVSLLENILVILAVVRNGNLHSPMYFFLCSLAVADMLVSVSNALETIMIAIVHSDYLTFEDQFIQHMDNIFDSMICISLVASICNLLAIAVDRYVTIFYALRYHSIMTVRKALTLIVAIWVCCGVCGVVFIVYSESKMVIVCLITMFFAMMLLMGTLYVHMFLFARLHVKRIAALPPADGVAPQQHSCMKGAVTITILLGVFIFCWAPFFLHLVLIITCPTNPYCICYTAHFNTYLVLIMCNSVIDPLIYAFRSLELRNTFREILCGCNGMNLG
oxytocin receptor, sequence (P30559 whole entry): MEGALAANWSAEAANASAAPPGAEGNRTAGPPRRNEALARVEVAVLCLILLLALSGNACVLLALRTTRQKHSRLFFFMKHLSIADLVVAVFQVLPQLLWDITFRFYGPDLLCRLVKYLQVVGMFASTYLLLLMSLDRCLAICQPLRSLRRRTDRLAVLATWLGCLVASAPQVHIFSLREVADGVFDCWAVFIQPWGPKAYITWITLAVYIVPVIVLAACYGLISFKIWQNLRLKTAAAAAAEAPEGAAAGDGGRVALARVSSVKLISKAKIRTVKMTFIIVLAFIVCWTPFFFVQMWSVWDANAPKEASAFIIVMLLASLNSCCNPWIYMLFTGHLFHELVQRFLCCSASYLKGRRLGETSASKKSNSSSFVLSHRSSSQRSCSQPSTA

**Q.** For Oxytocin (peptide), which Emax (the concentration where the reference agonist elicited a maximal response), calcium flux (oxytocin receptor) is on record?
**A.** 1.25 µM

**Q.** Which results are given for Serelaxin (ligand)?
**A.** cAMP (HTRF), agonist mode, EC50 (RXFP1 [1]): 1.12 nM; cAMP (HTRF), Ec50 (nM), 0% Plasma (RXFP1 [2]): 8 nM; cAMP (HTRF), Ec50 (nM), 4% Plasma (RXFP1 [2]): 0.3 nM; cAMP (HTRF), Ec50 (nM), 10% Plasma (RXFP1 [2]): 0.4 nM; cAMP (HTRF), Ec50 (nM), 600 uL BSA (RXFP1 [2]): 0.7 nM

B1: transglutaminase enzyme (Ajinomoto) (enzyme)
chain: DSDDRVTPPAEPLDRMPDPYRPSYGRAETVVNNYIRKWQQVYSHRDGRKQQMTEEQREWLSYGCVGVTWVNSGQYPTNRLAFASFDEDRFKNELKNGRPRSGETRAEFEGRVAKESFDEEKGFQRAREVASVMNRALENAHDESAYLDNLKKELANGNDALRNEDARSPFYSALRNTPSFKERNGGNHDPSRMKAVIYSKHFWSGQDRSSSADKRKYGDPDAFRPAPGTGLVDMSRDRNIPRSPTSPGEGFVNFDYGWFGAQTEADADKTVWTHGNHYHAPNGSLGAMHVYESKFRNWSEGYSDFDRGAYVITFIPKSWNTAPDKVKQGWP
**Q.** How did the TGase labelling of hFGF23-variant with intermediate 25d, LCMS [3] turn out when B1 was run?
**A.** 90%

B2: pE-R-P-R-L-C*-H-K-G-P-Nle-C*-F-OH (Disulfide C6-C12) (peptide)
peptide: [pGlu]RPRLCHKGP[Nle]CF-OH
modifications: disulfide 6-12
SMILES: CCCC[C@@H]1NC(=O)[C@@H]2CCCN2C(=O)CNC(=O)[C@H](CCCCN)NC(=O)[C@H](Cc2c[nH]cn2)NC(=O)[C@@H](NC(=O)[C@H](CC(C)C)NC(=O)[C@H](CCCNC(=N)N)NC(=O)[C@@H]2CCCN2C(=O)[C@H](CCCNC(=N)N)NC(=O)[C@@H]2CCC(=O)N2)CSSC[C@@H](C(=O)N[C@@H](Cc2ccccc2)C(=O)O)NC1=O
**Q.** For B2, which “hAPJ Ca2+ Flux EC50” value (APJ) is on record?
**A.** 1.04 nM

**Q.** For SSRRCVRLHESCLGQQVPCCDPCATCYCRFFNAFCYCRKLGTAMNPCSRT (ligand, disulfide 12-26, 19-37, 5-20, 23-47, 28-35) [AgRP(83-132)], which MC3R EC50 [nM] (cAMP assay, antagonist protocol) (MC3R) is on record?
**A.** 12 nM

**Q.** What does the source list for {I‑37}-SSRRCVRLHESCLGQQVPCCDPCATCYCRFFNAFCYCRKLGTAMNPCSRT (ligand, disulfide 12-26, 19-37, 5-20, 23-47, 28-35; reading uncertain) [Example 27A: Mono fatty acid conjugate of AgRP (AgRP+1FA)]?
**A.** MC3R EC50 [nM] (cAMP assay, antagonist protocol) (MC3R): 7 nM; MC4R EC50 [nM] (HTRF cAMP assay) (MC4R): 18 nM

B3: pE-R-P-C*-L-S-C*-K-G-P-(D-Nle)-NH(Phenethyl) (disulfide C4-C7) (peptide)
peptide: ERPCLSCKGPL
modifications: pE (pyroglutamate) at the N-terminus; D-Nle at position 11; C-terminal NH(Phenethyl); disulfide C4-C7
**Q.** Which “hAPJ Ca2+ Flux EC50” value (APJ) does the source give for B3 here?
**A.** 3 nM

B4: Example 27B: Di-fatty acid conjugate of AgRP(83-132) (AgRP+2 FA) (ligand)
chain: {I‑37}-SSRRCVRLHESCLGQQVPCCDPCATCYCRFFNAFCYCRK(I‑37)LGTAMNPCSRT
modifications: disulfide 12-26, 19-37, 5-20, 23-47, 28-35; not fully specified; printed as Ser-Ser-Arg-Arg-Cys-Val-Arg-Leu-H is-Glu-Ser-Cys-Leu-Gly-Gln-Gln-Val-Pro-Cys-Cys-Asp-Pro-Cys-Ala-Thr-Cys-Tyr-Cys-Arg-Phe-Phe-Asn-Ala-Phe-Cys-Tyr-Cys-Arg-Lys-Leu-Gly-Thr-Ala-Met-Asn-Pro-Cys-Ser-Arg-Thr; reading uncertain
**Q.** With B4 as the molecule, how does the MC3R EC50 [nM] (cAMP assay, antagonist protocol) (MC3R) read?
**A.** 65 nM

**Q.** What about the MC4R EC50 [nM] (HTRF cAMP assay) (MC4R) of the same molecule?
**A.** 167 nM

— patent US10786576B2, “Fatty acids and their use in conjugation to biomolecules” (Novartis AG, dated 2020)
